# Target: DPP9, short isoform (DPP9S), co-expressed with CARD8 for cryo-EM (human), Q86TI2
# Test: cryo-EM structure
# Details: remark: other sources report otherwise
binder,measurement,value
"DPP9, short isoform (DPP9S), co-expressed with CARD8 for cryo-EM, Q86TI2-1 1-863 (enzyme) MATTGTPTADRGDAAATDDPAARFQVQKHSWDGLRSIIHGSRKYSGLIVNKAPHDFQFVQKTDESGPHSHRLYYLGMPYGSRENSLLYSEIPKKVRKEALLLLSWKQMLDHFQATPHHGVYSREEELLRERKRLGVFGITSYDFHSESGLFLFQASNSLFHCRDGGKNGFMVSPMKPLEIKTQCSGPRMDPKICPADPAFFSFINNSDLWVANIETGEERRLTFCHQGLSNVLDDPKSAGVATFVIQEEFDRFTGYWWCPTASWEGSEGLKTLRILYEEVDESEVEVIHVPSPALEERKTDSYRYPRTGSKNPKIALKLAEFQTDSQGKIVSTQEKELVQPFSSLFPKVEYIARAGWTRDGKYAWAMFLDRPQQWLQLVLLPPALFIPSTENEEQRLASARAVPRNVQPYVVYEEVTNVWINVHDIFYPFPQSEGEDELCFLRANECKTGFCHLYKVTAVLKSQGYDWSEPFSPGEDEFKCPIKEEIALTSGEWEVLARHGSKIWVNEETKLVYFQGTKDTPLEHHLYVVSYEAAGEIVRLTTPGFSHSCSMSQNFDMFVSHYSSVSTPPCVHVYKLSGPDDDPLHKQPRFWASMMEAASCPPDYVPPEIFHFHTRSDVRLYGMIYKPHALQPGKKHPTVLFVYGGPQVQLVNNSFKGIKYLRLNTLASLGYAVVVIDGRGSCQRGLRFEGALKNQMGQVEIEDQVEGLQFVAEKYGFIDLSRVAIHGWSYGGFLSLMGLIHKPQVFKVAIAGAPVTVWMAYDTGYTERYMDVPENNQHGYEAGSVALHVEKLPNEPNRLLILHGFLDENVHFFHTNFLVSQLIRAGKPYQLQIYPNERHSIRCPESGEHYEVTLLHFLQEYL",stoichiometry N,2

# — doi:10.1101/2021.01.13.426575
